This is an account of results in patent publication US20210085781A1.

In the test the target is recombinant SARS-CoV-2 S1 protein expressed from insect (Sf9) cells (S1-His, SinoBiological, Cat. No. 40591-V08B1) (SARS-CoV-2) (UniProt P0DTC2). Kind of test: ELISA, coated S1 from Sf9 cells, HRP-conjugated lectin 10 ug/mL. Background: ELISA stands for enzyme-linked immunosorbent assay.

As to “Salvia sclarea lectin (SSA; Cat. No: H-3501-1)”, the mean fold increase of OD450 was 3.97 fold.
